Values of other authors in patent publication US20180296685A1, “TARGETED CONSTRUCTS AND FORMULATIONS THEREOF” (TARVEDA THERAPEUTICS, INC., priority 2017, published 2018).

Settings: transthyretin, serum protein

Transthyretin
in vivo half-life: around 48 h
